The source of these data is patent US20250327069A1 (CORNELL UNIVERSITY, published 2025).

Data set [1] relates to Tn6900 Cascade-TniQ, Cas8/5 A247Q+S248N Cas8/5 A247Q,S248N (Aeromonas salmonicida S44). As to the kind of experiment: cell_activity. To be noted: over half of transposition events at PAMs with -1 C.
Data set [2] relates to Tn6900 Cascade-TniQ wild type (with TnsABC) (Aeromonas salmonicida S44). As to the kind of experiment: cell_activity. To be noted: CC PAM in transposition screen; about 3-fold.
Data set [3] has as its system I-F1 PA14 Csy complex with Cas2/3 (Pseudomonas aeruginosa PA14). As to the kind of experiment: cell_activity. The conditions noted are these: CC PAM; interference assay, completely depleted.
Data set [4] deals with the molecule itself. The experiment in a line: cryo-EM structure of the Cascade-TniQ full R-loop complex.
Data set [5] addresses T1, Cas8/5 protein of the I-F3b Tn6900 Cascade (Aeromonas salmonicida S44 (Tn6900 …)).
T1 chain: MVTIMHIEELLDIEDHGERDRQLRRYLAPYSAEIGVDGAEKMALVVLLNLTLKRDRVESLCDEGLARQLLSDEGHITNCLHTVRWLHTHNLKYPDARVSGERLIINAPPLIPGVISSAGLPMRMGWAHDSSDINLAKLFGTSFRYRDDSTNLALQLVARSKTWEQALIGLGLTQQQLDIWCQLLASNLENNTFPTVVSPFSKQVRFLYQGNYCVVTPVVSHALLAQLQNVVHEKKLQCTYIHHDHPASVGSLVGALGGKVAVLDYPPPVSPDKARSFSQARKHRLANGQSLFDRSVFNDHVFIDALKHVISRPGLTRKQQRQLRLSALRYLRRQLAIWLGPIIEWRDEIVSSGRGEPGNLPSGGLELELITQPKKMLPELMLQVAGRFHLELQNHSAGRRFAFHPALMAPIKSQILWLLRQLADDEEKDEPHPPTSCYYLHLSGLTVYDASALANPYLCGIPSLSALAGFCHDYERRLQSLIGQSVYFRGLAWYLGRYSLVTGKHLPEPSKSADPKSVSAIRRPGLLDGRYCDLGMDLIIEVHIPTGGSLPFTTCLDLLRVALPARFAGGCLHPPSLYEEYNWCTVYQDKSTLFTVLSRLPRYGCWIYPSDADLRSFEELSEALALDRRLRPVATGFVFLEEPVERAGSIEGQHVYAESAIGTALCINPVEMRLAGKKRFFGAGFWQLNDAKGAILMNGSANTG
The data set is described as above.

Some results are limits rather than exact numbers.

Chain of Tn6900 Cascade-TniQ, Cas8/5 A247Q+S248N Cas8/5 A247Q,S248N (Aeromonas salmonicida S44) (chain, as listed by the source A247Q S248N A247Q S248N, chain 2 of 2): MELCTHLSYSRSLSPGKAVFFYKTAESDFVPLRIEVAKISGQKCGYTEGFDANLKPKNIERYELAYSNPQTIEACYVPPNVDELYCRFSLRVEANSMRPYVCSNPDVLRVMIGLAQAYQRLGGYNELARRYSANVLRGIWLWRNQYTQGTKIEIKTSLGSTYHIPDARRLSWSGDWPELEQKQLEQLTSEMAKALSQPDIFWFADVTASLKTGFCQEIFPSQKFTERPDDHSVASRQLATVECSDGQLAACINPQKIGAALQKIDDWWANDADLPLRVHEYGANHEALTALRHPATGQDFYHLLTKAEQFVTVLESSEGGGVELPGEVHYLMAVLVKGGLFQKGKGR
Chain of Tn6900 Cascade-TniQ, Cas8/5 A247Q+S248N Cas8/5 A247Q,S248N (Aeromonas salmonicida S44) (chain, as listed by the source A247Q S248N A247Q S248N, chain 3 of 2): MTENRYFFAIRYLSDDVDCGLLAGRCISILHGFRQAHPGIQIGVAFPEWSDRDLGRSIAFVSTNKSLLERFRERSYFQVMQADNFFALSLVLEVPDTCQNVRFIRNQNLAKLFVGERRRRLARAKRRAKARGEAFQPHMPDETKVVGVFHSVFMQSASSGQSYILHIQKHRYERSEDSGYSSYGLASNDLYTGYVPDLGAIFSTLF
Chain of Tn6900 Cascade-TniQ wild type (with TnsABC) (Aeromonas salmonicida S44) (chain, as listed by the source, chain 2 of 2): as the sequence (chain, as listed by the source A247Q S248N A247Q S248N, chain 2 of 2) above
Chain of Tn6900 Cascade-TniQ wild type (with TnsABC) (Aeromonas salmonicida S44) (chain, as listed by the source, chain 3 of 2): as the sequence (chain, as listed by the source A247Q S248N A247Q S248N, chain 3 of 2) above

For the molecule “atypical crRNA ffs (60 nt) ; NN-PAM ffs plasmid pool”, the share of transposition events at PAMs with -1 C (% of events with C at -1) in data set [1] is > 50.
On to “atypical crRNA ffs (60 nt) ; CC-PAM ffs target”, for which, in data set [2], the binding signal (fold enrichment) was 3.
As for PA14 crRNA-ffs ; CC-PAM ffs target, in data set [3], the enrichment after interference (depletion) (enrichment (depletion)) is < 0.005.

B1: TniQ subunit (monomer) of the TniQ homo-dimer (other)
chain: MHLLVRPEPFADEALESYFLRLSQENGFERYRIFSGSVQDWLHTTDHAAAGAFPLELSRLNIFHASRSSGLRVRALQLVDRLTDGAPFRLLQLALCHSAISFGNHYKAVHRSGVDIPLSFIRVHQIPCCPDCLRESAYVRQCWHFKPYVGCHRHGGRLIYSCPACGESLNYLASESINHCQCGFDLRTASTVPAQPDEIQLSALAYGCSFESSNPLLAIGSLSARFGALYWYQQRYLSDHEAVRDDRALTKAIGHFTAWPDAFWRELQQMVDDALVRQTKPLNHTDFVDVFGSVVADCRQIPMRNTGQNFILKNLIGFLTDLVARHPQCRVANVGDLLLSAVDAATLLSTSVEQVRRLHHEGFLPLSIRPASRNTVSPHRAVFHLRHVVELRQARMQSHHDHSSTYLPAW
notes: One chain of the dimer, entered to record the self-association of TniQ; also called TniQ.1; TniQ.2; not shown: His6 tag named only in the plasmid name (pCOLADuet-1-His6-tniQ)
Regarding B1, the binding result in data set [4] is “binds”.

B2: TniQ transposition protein of the I-F3b element Tn6900 (Aeromonas salmonicida S44), homo-dimer as associated with Cascade (other)
chain: B1 chain
notes: Expressed in E. coli together with Cascade and purified as the Cascade-TniQ complex over Ni-NTA through the His6 tag on TniQ; also called His6-TniQ; TniQ dimer; not shown: His6 tag named only in the plasmid name (pCOLADuet-1-His6-tniQ)
With B2, the binding result in data set [5] was “binds”.
